Test results published in patent US20100061983A1 (published 2010).

T1: human CXC Chemokine Receptor 3 (CXCR3) (human, UniProt P49682 1-368)
T1 construct: also called IP-10/Mig receptor; IP-10/MigR
T1 sequence: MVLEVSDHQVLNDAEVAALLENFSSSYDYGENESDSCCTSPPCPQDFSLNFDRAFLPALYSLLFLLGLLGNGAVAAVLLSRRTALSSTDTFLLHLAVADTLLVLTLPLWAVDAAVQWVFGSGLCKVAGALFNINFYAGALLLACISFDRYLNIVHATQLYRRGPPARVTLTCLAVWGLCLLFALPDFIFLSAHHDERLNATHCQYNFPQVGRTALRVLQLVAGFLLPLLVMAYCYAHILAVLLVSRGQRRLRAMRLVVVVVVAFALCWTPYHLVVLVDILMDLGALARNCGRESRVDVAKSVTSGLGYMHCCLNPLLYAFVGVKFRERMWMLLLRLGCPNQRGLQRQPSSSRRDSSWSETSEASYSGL

B1: I309 (ligand, human, UniProt P22362 24-96, looked up)
chain: KSMQVPFSRCCFSFAEQEIPLRAILCYRNTSSICSNEGLIFKLKRGKEACALDTVGWVQRHRKMLRHCPSKRK
B2: Mig (monokine induced by gamma interferon) (ligand, human, UniProt Q07325 23-125, looked up)
chain: TPVVRKGRCSCISTNQGTIHLQSLKDLKQFAPSPSCEKIEIIATLKNGVQTCLNPDSADVKELIKKWEKQVSQKKKQKNGKKHQKKKVLKVRKSQRSRQKKTT
notes: also called cold Mig
B3: PF4 (platelet factor 4) (ligand, human, UniProt P02776 32-101, looked up)
chain: EAEEDGDLQCLCVKTTSQVRPRHITSLEVIKAGPHCPTAQLIATLKNGRKICLDLQAPLYKKIIKKLLES
B4: NAP-2 (neutrophil-activating protein-2) (ligand, human, UniProt P02775 59-128, looked up)
chain: AELRCMCIKTTSGIHPKNIQSLEVIGKGTHCNQVEVIATLKDGRKICLDPDAPRIKKIVQKKLAGDESAD

Experiments:
[1] = biological target: T1, human CXC Chemokine Receptor 3 (CXCR3); assay: cell-based or functional assay
[2] = biological target: T1, human CXC Chemokine Receptor 3 (CXCR3); assay: inhibition of 125I-IP-10 binding to activated T cells
[3] = biological target: T1, human CXC Chemokine Receptor 3 (CXCR3); assay: inhibition of 0.05 nM 125I-IP-10 binding to activated T cells (CD3 blasts)
[4] = biological target: T1, human CXC Chemokine Receptor 3 (CXCR3); assay: summing-up of the radioligand binding studies; Mig itself was tested only as cold competitor of 125I-IP-10

| Molecule | [Ca2+]i changes in IP-10/MigR transfectants (no response up to the concentration given) [1] | also measured |
| --- | --- | --- |
| lymphotactin (from UniProt P47992 22-114) (ligand) | > 100 nM | – |
| GROα (from UniProt P09341 35-107) (ligand) | > 100 nM | – |
| MIP-1α (macrophage inflammatory protein-1α) (from UniProt P10147 24-92) (ligand) | > 100 nM | – |
| MCP-2 (from UniProt P80075 24-99) (ligand) | > 100 nM | – |
| MCP-4 (from UniProt Q99616 24-98) (ligand) | > 100 nM | – |
| MIP-1β (from UniProt P13236 24-92) (ligand) | > 100 nM | – |
| eotaxin (from UniProt P51671 24-97) (ligand) | > 100 nM | – |
| murine anti-CXCR3 monoclonal antibody 1C6 | – | IC50, inhibition of IP-10 (12.5 nM) induced chemotaxis of activated T cells [1]: 0.8 µg/mL; IC50, inhibition of IP-10 mediated chemotaxis of activated T cells [1]: 0.856 µg/mL; Mig (2 nM) induced [Ca2+]i in activated T cells (no effect up to the concentration given) [1]: > 50 µg/mL; antibody concentration giving 100% inhibition of IP-10 induced chemotaxis of activated T cells [1]: 2 to 5 µg/mL; antibody concentration giving complete inhibition of 125I-IP-10 binding [2]: 1 to 10 µg/mL; IC50 [3]: 0.16 µg/mL |
| MCP-3 (from UniProt P80098 24-99) (ligand) | > 100 nM | – |
| ENA78 (epithelial-derived neutrophil-activating peptide 78) (from UniProt P42830 37-114) (ligand) | > 100 nM | – |
| RANTES (regulated on activation, normal T cell expressed and secreted) (from UniProt P13501 24-91) (ligand) | > 100 nM | – |
| IL-8 (interleukin 8) (from UniProt P10145 28-99) (ligand) | > 100 nM | – |
| GCP-2 (granulocyte chemotactic protein-2) (from UniProt P80162 38-114) (ligand) | > 100 nM | – |
| MCP-1 (monocyte chemotactic protein-1) (from UniProt P13500 24-99) (ligand) | > 100 nM | – |
| B1 | > 100 nM | – |
| B2 | – | Kd [4]: 0.15 to 0.6 nM |
| B3 | > 100 nM | – |
| B4 | > 100 nM | – |
